Experimental data: patent US20050112552A1, “Identification and isolation of novel polypeptides having PDZ domains and methods of using same” (AxCell Biosciences Corporation, priority 2000, published 2005)
Like-named read-outs stand apart in the source and are kept apart here. Where no end group is shown, it is not given here.

How the values were obtained:
[1] = target: T1, interaction between the first PDZ domain in PSD-95 and the carboxy terminal peptide sequence of Na channel protein (Homo sapiens, UniProt P78352); test: Competitive inhibition analysis of PDZ domain-peptide ligand interaction; type: binding; conditions: GST-PSD-95.1 coated plates, biotinylated Na+ channel peptide (SEQ ID NO:51), various inhibitor concentrations, A405 nm
T1 construct: a GST-PSD-95.1 fusion protein of the first PDZ domain of PSD-95; made in house
Text: FIG. 19 presents a competitive inhibition analysis of the interaction between the first PDZ domain in PSD-95 and the carboxy terminal peptide sequence of Na channel protein. GST fusion protein containing the first PZD domain of PSD-95 was contacted with a recognition unit-peptide complex corresponding to the 12 carboxyl terminal amino acids of Na^+ channel protein (FIG. 5A, SEQ ID NO:51) and various concentrations of 1 of 3 different inhibitor peptide complexes. Binding of the dimer inhibitor peptide in the presence of streptavidin alkaline phosphatase/Biotin-Ser-Gly-Ser-Gly-Pro-Pro-Ser-Pro-Asp-Arg-Asp-Arg-Glu-Ser-Ile-Val-COOH (SEQ ID NO:157) is presented as a solid box. Binding of the recognition unit in the presence of a peptide corresponding to the 5 carboxy terminal residues of the Na^+ channel protein (SEQ ID NO:105) (hatched box), and in the presence of a scrambled version of this 5mer (SEQ ID NO:158) (open box), are also presented. Binding of the biotinylated peptide was quantitated at A405 nm. […]
An inhibition assay essentially as described in Section 5.4 was performed to assess the ability of PDZ ligands to uncouple NOS from the NMDA receptor. […] Particularly, biotinylated peptide and various concentrations of an inhibitor were added to microtiter plates coated with the GST-PSD-95.1 fusion protein and the binding interactions were quantified as described above. […]

PDZP2.2 = PDZP2.2 (Homo sapiens, UniProt Q96QZ7); conditions: GST fusion protein
Chain of PDZP2.2 (Q96QZ7 639-720 limits assumed): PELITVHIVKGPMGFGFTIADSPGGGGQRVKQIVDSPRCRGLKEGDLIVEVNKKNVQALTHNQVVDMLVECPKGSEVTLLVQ
Procedure: (§1) Assays that generate the data, e.g., that of FIGS. 5A and 5B, are conducted in the presence of various compounds that potentially effect the binding of the domains to respective recognition units.
(§2) To determine the ligand preferences of the novel PDZ domain-containing clones described in Section 6.1 the novel PDZ domains derived from PDZP2, PDZP3, KIAA-147, and the three PDZ domains of PSD-95 and Chapsyn were subcloned into glutathione S-transferase (GST) expression vectors and expressed as GST fusion proteins. We examined the peptide ligand binding preferences of all sixteen individual PDZ domains in an enzyme-linked immunosorbent assay-based cross-affinity map experiment. As mentioned above, 45 peptides were chosen from database searches and grouped into seven classes (G-protein coupled receptors, viral proteins, glutamate receptors, ion channels, Frizzled homologs, transporters and various other proteins). We tested the ability of these peptides to bind to the known and novel PDZ domains.
(§3) PCR fragments encoding individual PDZ domains were subcloned into the Sal1 and Notl sites of pGEX-4T-2 (Pharmacia Biotech, Inc.) and fusion proteins were expressed and purified as described by the manufacturer. ELISA based cross-affinity experiments were performed essentially as described by Sparks et al. (1996, Proc. Natl. Acad. Sci. USA 93:1540-1544) with the following modifications. Briefly, microtiter wells were coated with […] of fusion protein in 100 mM NaHCO3, blocked with SuperBlock TBS (Pierce) and washed four times with PBS, 0.05% Tween 20. Specific peptide-streptavidin/alkaline phosphatase complexes were added as above and unbound complexes washed five times with PBS, 0.05% Tween 20. Following addition of PNP substrate (p-nitrophenyl phosphate, Kirkegard & Perry Labs), peptide binding was quantitated after 30 min. at O.D. 405 nm. Relative binding measurements from three independent determinations were assigned to a scale as follows: O.D. units 0−0.5=(−), 0.5−1.0=(+), 1.0−2.0=(++), 2.0−3.0=(+++)>3.0=(++++). Peptide sequences used in cross-affinity experiments correspond to C-terminal segments of the following proteins: protein name (species: H=Human; M=Mouse; R=Rat; B=Bovine; V=Viral Origin, Genbank accession number); β1-adrenoreceptor (H, P18090); Serotonin Receptor (H, P28223); VIP Receptor (H, P32241); CRF Receptor (H, P34998); Orphan Receptor (H, P46089); β-1 Adrenergic Receptor (H, P08588); COM (ADE02, P03267); E6, HPV18 (V, P06463); UL25, HSV11 (V, P10209); GP3, EBV (V, P03200); TAT, HTL1A (V, P03409); UL14, VZVD (V, P09295); NMDA Receptor, NR2B (M, Q01097); NMDA Receptor subunit (H, U08266); mGluR1α (H, U31215); mGluR5a (H, D28538); mGluR (H, L76631); mGluR3 (H, AC002081); AMPA receptor (H, L20814); K^+-Channel, KV 1.4 (H, P22459); K^+-Channel Kir 2.2v (H, U53143); Na^+-Channel (a) (H, P15389); K^+-Channel (Kir) (H, D50582); Transmembrane Receptor (Homolog of frizzled ) (H, U43318); Homolog of frizzled (R, L02529); Homolog of frizzled (M, U43319); Glucose transporter (H, P11166); Excitatory Amino Acid Transporter (H, P43003); FAS Receptor (H, P25445); NGF Receptor (H, P08138); Neuropeptide Y Receptor, type 2 (H, P49146); Somatostatin Receptor, type 2 (H, P30874); CFTR (H, P13569); V-CAM (H, P19320); Ankyrin (H, Q01484); Fanconi anemia group C protein (H , Q00597); Calcium pump (H, P23634); APC protein (H, P25054); BCR, (H, P11274); MPK2 (H, P36507); Colorectal Mutant Cancer Protein (H, P23508); 65 KD Yes-Associated Protein (H, P46937); Neutrophil Cytosol Factor 1 (H, P14598); Neurexin III, (B, L27869); Neurexin II (B, L14855). Protein sequence homology searches were performed using BLAST (Altschul et al., 1990, J. Mol. Biol. 215:403-410).

PDZP3.1 = PDZP3.1 (Homo sapiens, UniProt Q8NI35); conditions: GST fusion protein
Chain of PDZP3.1 (Q8NI35 1433-1519 limits assumed): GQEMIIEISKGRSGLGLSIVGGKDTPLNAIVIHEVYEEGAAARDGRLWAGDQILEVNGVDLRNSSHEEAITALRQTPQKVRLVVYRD
Procedure: as §1, §2, §3

PDZP2.4 = PDZP2.4 (Homo sapiens, UniProt Q96QZ7); conditions: GST fusion protein
Chain of PDZP2.4 (Q96QZ7 with tags, fused parts or gaps isoform Q96QZ7-2 limits assumed): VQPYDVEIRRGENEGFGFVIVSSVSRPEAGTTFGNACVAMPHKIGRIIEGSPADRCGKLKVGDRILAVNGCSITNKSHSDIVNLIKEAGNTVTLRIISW
Procedure: as §1, §2, §3

PDZP3.2 = PDZP3.2 (Homo sapiens, UniProt Q8NI35); conditions: GST fusion protein
Chain of PDZP3.2 (Q8NI35 1530-1614 limits assumed): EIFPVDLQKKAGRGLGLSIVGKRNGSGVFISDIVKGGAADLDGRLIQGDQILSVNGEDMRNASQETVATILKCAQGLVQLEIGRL
Procedure: as §1, §2, §3

PDZP2.3 = PDZP2.3 (Homo sapiens, UniProt Q96QZ7); conditions: GST fusion protein
Chain of PDZP2.3 (Q96QZ7 837-922 limits assumed): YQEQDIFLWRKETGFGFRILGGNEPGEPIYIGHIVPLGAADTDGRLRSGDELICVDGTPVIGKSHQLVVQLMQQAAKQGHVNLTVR
Procedure: as §1, §2, §3

[2] = target: first PDZ domain of PSD-95 (PSD-95-1) (Homo sapiens, UniProt P78352); conditions: for binding to the first PDZ domain of PSD-95: cross-affinity map, no test compound, in words; for PDZ domain-recognition unit interaction, PSD-95-1: GST fusion protein
Procedure: as §1, §2, §3

PDZP2.1 = PDZP2.1 (Homo sapiens, UniProt Q96QZ7, D549G/L550P); conditions: GST fusion protein
Chain of PDZP2.1 (Q96QZ7 468-553 D549G/L550P limits assumed): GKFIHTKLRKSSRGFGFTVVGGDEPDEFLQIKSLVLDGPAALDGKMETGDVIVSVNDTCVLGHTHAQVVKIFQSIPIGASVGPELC
Procedure: as §1, §2, §3

[3] = target: T2, second PDZ domain of PSD-95 (Homo sapiens, UniProt P78352); design: PCR fragments encoding individual PDZ domains were subcloned; made in house; conditions: stated as known; cited from earlier work
[4] = target: second PDZ domain of Chapsyn (Homo sapiens, UniProt Q15700); conditions: cross-affinity map; in words
Text: as §2, §3

[5] = target: first PDZ domain of Chapsyn (Homo sapiens, UniProt Q15700, V177A); conditions: cross-affinity map; in words
Text: as §2, §3

[6] = target: third PDZ domain of Chapsyn (Homo sapiens, UniProt Q15700); conditions: cross-affinity map; in words
Text: as §2, §3

[7] = target: third PDZ domain of PSD-95 (Homo sapiens, UniProt P78352, D348N); conditions: cross-affinity map; in words
Text: as §2, §3

[8] = target: T2, second PDZ domain of PSD-95; conditions: cross-affinity map, in words
Text: as §2, §3

[9] = listed as NMDA receptor NR2 subunit

Substance: AC-Cys-Pro-Pro-Ser-Pro-Asp-Arg-Asp-Arg-Glu-Ser-Ile-Val-COOH (Ac-CPPSPDRDRESIV-OH) [dimer inhibitor]
- inhibition of the interaction of the PDZ domain and ligand [1]: able to inhibit

Substance: Arg-Glu-Ser-Ile-Val-COOH (RESIV-OH) [5mer containing the carboxy terminal 5 residues of the Na+ channel peptide]
- inhibition of the interaction of the PDZ domain and ligand [1]: to a lesser extent

Substance: SEQ ID NO. 42: biotinylated peptide, 12 carboxy terminal amino acids of NMDA (NR2B), mouse (VYEKLSSIESDV; not fully specified; also: biotinylated, position not given here)
- PDZ domain-recognition unit interaction, PDZ2.2 (PDZP2.2; in the presence of Compound A): + (0.5−1.0=(+))
- PDZ domain-recognition unit interaction, PDZ2.2 (PDZP2.2; in the presence of Compound B): +++ (2.0−3.0=(+++))
- PDZ domain-recognition unit interaction, PDZ2.2 (PDZP2.2; in the presence of Compound C): + (0.5−1.0=(+))
- PDZ domain-recognition unit interaction, PDZ3.1 (PDZP3.1; in the presence of Compound A): + (0.5−1.0=(+))
- PDZ domain-recognition unit interaction, PDZ3.1 (PDZP3.1; in the presence of Compound B): ++++ (>3.0=(++++))
- PDZ domain-recognition unit interaction, PDZ3.1 (PDZP3.1; in the presence of Compound C): ++++ (>3.0=(++++))
- PDZ domain-recognition unit interaction, PDZ2.4 (PDZP2.4; in the presence of Compound A): + (0.5−1.0=(+))
- PDZ domain-recognition unit interaction, PDZ2.4 (PDZP2.4; in the presence of Compound B): ++++ (>3.0=(++++))
- PDZ domain-recognition unit interaction, PDZ2.4 (PDZP2.4; in the presence of Compound C): + (0.5−1.0=(+))
- PDZ domain-recognition unit interaction, PDZ3.2 (PDZP3.2; in the presence of Compound A): − (O.D. units 0−0.5=(−))
- PDZ domain-recognition unit interaction, PDZ3.2 (PDZP3.2; in the presence of Compound B): − (O.D. units 0−0.5=(−))
- PDZ domain-recognition unit interaction, PDZ3.2 (PDZP3.2; in the presence of Compound C): − (O.D. units 0−0.5=(−))
- PDZ domain-recognition unit interaction, PDZ2.3 (PDZP2.3; in the presence of Compound A): + (0.5−1.0=(+))
- PDZ domain-recognition unit interaction, PDZ2.3 (PDZP2.3; in the presence of Compound B): ++++ (>3.0=(++++))
- PDZ domain-recognition unit interaction, PDZ2.3 (PDZP2.3; in the presence of Compound C): + (0.5−1.0=(+))
- binding to the first PDZ domain of PSD-95 [2]: positive interaction
- binding to the first PDZ domain of PSD-95 [2, 9]: bind to the first and second PDZ domain
- PDZ domain-recognition unit interaction, PSD-95-1 ([2]; in the presence of Compound A): − (O.D. units 0−0.5=(−))
- PDZ domain-recognition unit interaction, PSD-95-1 ([2]; in the presence of Compound B): +++ (2.0−3.0=(+++))
- PDZ domain-recognition unit interaction, PSD-95-1 ([2]; in the presence of Compound C): +++ (2.0−3.0=(+++))
- PDZ domain-recognition unit interaction, PDZP2.1 (PDZP2.1; in the presence of Compound A): + (0.5−1.0=(+))
- PDZ domain-recognition unit interaction, PDZP2.1 (PDZP2.1; in the presence of Compound B): ++++ (>3.0=(++++))
- PDZ domain-recognition unit interaction, PDZP2.1 (PDZP2.1; in the presence of Compound C): + (0.5−1.0=(+))
- binding to the second PDZ domain of PSD-95 [3]: binds
- binding to the second PDZ domain of Chapsyn [4]: same binding specificities
- binding to the first PDZ domain of Chapsyn [5]: same binding specificities
- binding to the third PDZ domain of Chapsyn [6]: same binding specificities
- binding to the third PDZ domain of PSD-95 [7]: not the third PDZ domain
- binding to the second PDZ domain of PSD-95 [8]: positive interaction
- binding to the second PDZ domain of PSD-95 [8, 9]: bind to the first and second PDZ domain
